Test [1] has as its target T1, human CCL20-secreted alkaline phosphatase (SEAP) fusion (human, UniProt P78556 27-96).
T1 construct: also called hCCL20; human CCL20-SEAP; not shown: secreted alkaline phosphatase (SEAP), cDNA from pSEAP-Enhancer vector (Clontech)
The test is described as follows: ELISA, serially diluted CCL20-SEAP captured by anti-alkaline phosphatase antibody, antibody at 1 µg/ml; human CCL20-SEAP. As to the method:
(§1) To test whether the chimeric and humanized antibodies can bind to mouse, cynomolgus, or rhesus macaque CCL20 orthologs, we used ELISA assays as illustrated in FIG. 15. Recombinant secreted alkaline phosphatase (SEAP)-chemokine fusion proteins were engineered as described in Example 2, expressed and purified for all of the CCL20 orthologs tested. Nunc MaxiSorb flat-bottom black plates were coated with 1 μg/ml mouse anti-placental alkaline phosphatase antibody (Pierce, cat# MA1-19354) in 50 mM sodium bicarbonate, pH 9.4, overnight at 4° C. Plates were then blocked using 1× phosphate buffered saline with Tween-20 (PBST) with 5% bovine serum albumin (BSA) for 2 hours at room temperature. 20 nM SEAP-CCL20 fusion proteins were serially diluted 5-fold in Opti-MEM medium (Invitrogen). Chimeric and humanized (HC2/LC3 and HC2/LK3) antibodies were diluted to 1 μg/ml in 1×PBST with 5% BSA, added to the plates, and incubated for 1 hr at room temperature. The plates were then washed with 1×PBST with 5% BSA three times. […] QuantaBlu fluorescent HRP substrate (Pierce cat#15169) was added for detection of bound antibody by measuring fluorescence in a Molecular Devices M5 (Excitation 325 nm/Emission 420 nm) plate reader. […]

For test [2], the target named is T2, cynomolgus CCL20-secreted alkaline phosphatase (SEAP) fusion (cynomolgus monkey).
T2 construct: also called cCCL20; cynomolgus CCL20-SEAP; not shown: the SEAP reporter (cDNA from Clontech pSEAP-Enhancer) and its junction to CCL20
T2 chain: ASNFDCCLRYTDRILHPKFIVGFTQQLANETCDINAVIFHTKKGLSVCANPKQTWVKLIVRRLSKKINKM
Nature of the test: ELISA, serially diluted CCL20-SEAP captured by anti-alkaline phosphatase antibody, antibody at 1 µg/ml. Here is the method: as §1

Test [3] has as its target T1, human CCL20-secreted alkaline …. Nature of the test: ELISA (fluorescent HRP substrate): CCL20-SEAP captured on anti-alkaline phosphatase in 5-fold dilutions from 20 nM (x axis, nM), antibody at 1 ug/ml; the text rounds this number to 62 pM. As to the method: as §1
The target of test [4] is T3, recombinant human CXCL4 (human, UniProt P02776 32-101).
T3 construct: also called PF4
T3 sequence (looked up): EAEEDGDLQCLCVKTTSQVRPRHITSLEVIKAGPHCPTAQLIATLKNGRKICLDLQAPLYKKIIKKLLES
Nature of the test: ELISA, plate-bound chemokine (1 ug/ml), antibody 10 ug/ml, OD450. The essentials:
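Wells coated overnight at 4 °C with 1 μg/ml recombinant human chemokine in PBS, blocked 1 h, then incubated 1 h at room temperature with antibodies at 10 μg/ml in 0.02% Tween 20/PBS. TMB development 15–30 min, stopped with 2 M H2SO4, OD read at 450 nm.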

Test [5] deals with T4, mouse CCL20-secreted alkaline phosphatase (SEAP) fusion (mouse, UniProt O89093 28-97).
T4 construct: Expressed in HEK293E, used as culture supernatant; also called SEAP-tagged mouse CCL20; mCCL20; not shown: secreted alkaline phosphatase (SEAP), cDNA from pSEAP-Enhancer vector (Clontech)
T4 sequence: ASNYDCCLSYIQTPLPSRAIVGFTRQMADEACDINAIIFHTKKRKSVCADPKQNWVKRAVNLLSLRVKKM
Nature of the test: ELISA on CCL20-SEAP, Abs 450; x axis 'ug/ml' in 4-fold steps down from 10, taken as the antibody concentration as in FIG. 11C.

Test [6] concerns the target T3, recombinant human CXCL4. Nature of the test: SPR (Biacore): antibody captured on the sensor chip, free chemokine injected; concentration not shown.

T1 sequence (P78556 27-96): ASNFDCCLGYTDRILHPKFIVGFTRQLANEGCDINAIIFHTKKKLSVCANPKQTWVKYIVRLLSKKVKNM

B1: humanized anti-human CCL20 antibody 36LC3/36HC2 (antibody, human IgG1, kappa, V domains shown)
VH: QVQLVQSGAEVKKPGASVKVSCKASGYTFTNYWMHWVRQAPGQGLEWMGVIDPSDSYTTYAQKFQGRVTMTVDTSTSTVYMELSSLRSEDTAVYYCARGNYGVDYAMDYWGQGTLVTVSS
VL: DIQMTQSPSSLSASVGDRVTITCRASENIYGALNWYQQKPGKAPKLLIYGATNLADGVPSRFSGSGSGRQYSLTISSLQPEDFATYYCQNVLITPYTFGGGTKLEIKR
notes: expressed in HEK293 cells; also called HC2/LC3; HC2LC3
Take B1: the 50% effective concentration (EC50) in test [1] was 0.062 nM; in test [3] it was 0.0619 nM. Moreover, the “fold difference of EC50 versus human CCL20” value in test [2] stood at 5.4 fold.

B2: mouse anti-human CCL20 monoclonal antibody 36F7C10 (antibody, V domains shown)
VH: QVQLQQPGAELVKPGASVKMSCKASGYTFTNYWMHWVKQRPGQGLEWIGVIDPSDSYTTYNQKFKGKATLTVDTSSSTAYMQLSSLTSEDSAVYYCTRGNYGVDYAMDYWGQGTSVTVSS
VL: DIQMTQSPASLSASVGETVTITCGASENIYGALNWYQRKQGKSPQLLIYGATNLADGMSSRFSGSGSGRQYSLKISSLHPDDVATYYCQNVLITPYTFGGGTKLEIK
notes: Mouse hybridoma antibody; also called MouseMAb; parental mouse clone 36F7C10
As for B2, the binding result (with recombinant human CXCL4 [4]; in test [5]) was “no binding (tested: 10 ug/ml)” in each case.

B3: chimeric 36F7C10 antibody (36F7C10-hFc) (antibody, V domains shown)
VH: B2 VH
VL: B2 VL
notes: also called chimeric 36F710; Chimeric MAb
Consider B3, for which the binding result with recombinant human CXCL4 [6] was “no binding”.

These data come from US20160046707A1 (EISAI R AND D MANAGEMENT, published 2016).
